Data from PMC8221791.

Key:
recombinant CD36 [1] = molecular target: recombinant CD36 (UniProt P16671); test: static adhesion assay of infected erythrocytes on spots of recombinant protein; recombinant receptor adsorbed as 20 ul spots on petri dishes in PBS overnight at 4°C (two-fold dilutions 10 to 0.31 ug/ml), blocked with Albumax; Percoll-purified trophozoite-stage infected HbAS (sickle-trait) RBCs, 4x10^6 cells per ml, 1 h at 37°C; washed, fixed, Giemsa-stained, counted per image; four-parameter log-logistic fit
recombinant CD36 [2] = molecular target: recombinant CD36 (UniProt P16671); test: static adhesion assay of infected erythrocytes on spots of recombinant protein; recombinant receptor adsorbed as 20 ul spots on petri dishes in PBS overnight at 4°C (two-fold dilutions 10 to 0.31 ug/ml), blocked with Albumax; Percoll-purified trophozoite-stage infected HbAA RBCs, 4x10^6 cells per ml, 1 h at 37°C; washed, fixed, Giemsa-stained, counted per image; four-parameter log-logistic fit
[3] = molecular target: recombinant Endothelial Protein C Receptor (EPCR) (UniProt Q9UNN8); test: static adhesion assay of infected erythrocytes on spots of recombinant protein; recombinant receptor adsorbed as 20 ul spots on petri dishes in PBS overnight at 4°C (two-fold dilutions 10 to 0.31 ug/ml), blocked with Albumax; Percoll-purified trophozoite-stage infected HbAS (sickle-trait) RBCs, 4x10^6 cells per ml, 1 h at 37°C; washed, fixed, Giemsa-stained, counted per image; four-parameter log-logistic fit
[4] = molecular target: recombinant Endothelial Protein C Receptor (EPCR) (UniProt Q9UNN8); test: static adhesion assay of infected erythrocytes on spots of recombinant protein; recombinant receptor adsorbed as 20 ul spots on petri dishes in PBS overnight at 4°C (two-fold dilutions 10 to 0.31 ug/ml), blocked with Albumax; Percoll-purified trophozoite-stage infected HbAA RBCs, 4x10^6 cells per ml, 1 h at 37°C; washed, fixed, Giemsa-stained, counted per image; four-parameter log-logistic fit

Chain of UniProt P16671 (P16671 whole entry): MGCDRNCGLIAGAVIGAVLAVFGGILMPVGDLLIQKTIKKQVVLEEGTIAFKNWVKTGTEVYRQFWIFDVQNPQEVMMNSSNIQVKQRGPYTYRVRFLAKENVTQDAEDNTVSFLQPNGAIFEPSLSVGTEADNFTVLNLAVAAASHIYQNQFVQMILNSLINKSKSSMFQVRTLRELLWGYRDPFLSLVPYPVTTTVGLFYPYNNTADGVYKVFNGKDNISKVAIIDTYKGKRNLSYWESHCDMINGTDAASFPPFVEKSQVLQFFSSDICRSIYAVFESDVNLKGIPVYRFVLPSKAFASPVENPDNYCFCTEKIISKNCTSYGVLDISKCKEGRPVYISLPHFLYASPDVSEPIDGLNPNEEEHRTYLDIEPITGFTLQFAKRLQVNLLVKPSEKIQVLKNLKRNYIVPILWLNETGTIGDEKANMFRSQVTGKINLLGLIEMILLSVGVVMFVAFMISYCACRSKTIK
Chain of UniProt Q9UNN8 (Q9UNN8 18-210): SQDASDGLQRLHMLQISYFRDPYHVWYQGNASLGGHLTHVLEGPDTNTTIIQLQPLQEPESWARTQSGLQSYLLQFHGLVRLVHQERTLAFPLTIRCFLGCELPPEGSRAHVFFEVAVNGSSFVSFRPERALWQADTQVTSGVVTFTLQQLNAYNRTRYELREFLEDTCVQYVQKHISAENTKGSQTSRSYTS

| Substance | CD36 spot concentration at estimated 50% adhesion (recombinant CD36 [1]) [µg/mL] | CD36 spot concentration at estimated 50% adhesion (recombinant CD36 [2]) [µg/mL] | EPCR spot concentration at estimated 50% adhesion [3] [µg/mL] | EPCR spot concentration at estimated 50% adhesion [4] [µg/mL] |
| --- | --- | --- | --- | --- |
| IT4var30 PfEMP1 (CD36-binding P. falciparum Erythrocyte Membrane Protein 1 variant of strain IT4) (natural protein) | 2.7 | 2.5 | – | – |
| IT4var20 PfEMP1 (EPCR-binding P. falciparum Erythrocyte Membrane Protein 1 variant of strain IT4) (natural protein) | – | – | 0.5 | 0.3 |
